The text below walks through data of paper doi:10.1101/2023.08.04.551977 (bioRxiv, 2023).

Read-outs that look alike come from different tables or passages of the source.

Data set [1] addresses Wild-type menin (human) (UniProt O00255). Description: MST.
The target of data set [2] is His-sumo-AR MBR (aa. G473-T560). Kind of data set: BLI.
In data set [3] the target is menin-MLL complex (UniProt O00255). Description: MST.
Data set [4] concerns the target menin Δ460-519 (human) (UniProt O00255). Description: MST.
Data set [5] concerns the target menin Δ460-519/ 586-615 (human) (UniProt O00255). Description: MST.
The target of data set [6] is Wild-type menin (human) (UniProt O00255). Description: MST. This is another data set of the same source.
Data set [7] has the same target. Kind of data set: SEC.
The target of data set [8] is His-sumo-AR MBR (aa. G473-T560). Description: BLI. This is another data set of the same source.
Data set [9] deals with His-sumo-AR MBR A (UniProt P10275). Kind of data set: BLI.
Data set [10] concerns the target His-sumo-AR MBR B (UniProt P10275). Kind of data set: BLI.
The target of data set [11] is Wild-type menin (human) (UniProt O00255). Description: dynamic light scattering.
Data set [12] concerns the molecule itself. Description: dynamic light scattering.
Data set [13] deals with the molecule itself. Description: MST.
Data set [14] deals with AR MBR (aa. G473-T560). Kind of data set: NMR titration.
Data set [15] deals with T1, AR-v7 (UniProt P10275-3 1-644).
T1 sequence: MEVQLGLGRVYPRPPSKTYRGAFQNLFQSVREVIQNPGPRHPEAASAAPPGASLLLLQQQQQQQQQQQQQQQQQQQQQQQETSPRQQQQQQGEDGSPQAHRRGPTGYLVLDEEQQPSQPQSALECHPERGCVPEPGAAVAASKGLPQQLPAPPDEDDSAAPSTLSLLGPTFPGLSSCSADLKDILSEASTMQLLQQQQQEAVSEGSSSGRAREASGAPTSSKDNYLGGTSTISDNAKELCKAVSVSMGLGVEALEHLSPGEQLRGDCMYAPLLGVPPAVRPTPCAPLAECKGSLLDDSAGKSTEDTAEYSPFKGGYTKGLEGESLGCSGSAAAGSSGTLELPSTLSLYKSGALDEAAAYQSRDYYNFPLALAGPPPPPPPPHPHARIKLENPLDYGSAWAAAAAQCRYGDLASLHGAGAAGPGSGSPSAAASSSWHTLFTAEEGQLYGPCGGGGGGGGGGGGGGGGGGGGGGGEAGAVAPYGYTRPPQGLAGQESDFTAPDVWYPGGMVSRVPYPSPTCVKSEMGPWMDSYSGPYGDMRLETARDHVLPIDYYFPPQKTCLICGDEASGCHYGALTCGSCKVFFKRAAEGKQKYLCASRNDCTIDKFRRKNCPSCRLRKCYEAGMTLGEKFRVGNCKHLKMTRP
Kind of data set: MST.

Data set [16] deals with the molecule itself. Description: HPLC-SAXS.

In data set [1], “His-sumo-AR MBR A (from UniProt P10275 473-518) (domain or fragment)” yielded a Kd of 1000 µM.

Regarding “menin-MLL complex (from UniProt O00255;Q03164)”, the dissociation constant (Kd) in data set [2] was determined as 10.5 µM.

For the molecule “His-sumo-AR MBR B (from UniProt P10275 509-559) (domain or fragment)”, the dissociation constant Kd in [1] stood at 24 µM. That is a double-digit micromolar value.

For the molecule “His-sumo-AR MBR (aa. G473-T560) (domain or fragment)”, the dissociation constant (Kd) in data set [3] is 10.8 µM; in [4], 6.3 µM; in [5], 2000 nM; in [1], 1.7 µM; in data set [6], 9.8 µM.

B1: Wild-type menin (natural protein)
chain: MGLKAAQKTLFPLRSIDDVVRLFAAELGREEPDLVLLSLVLGFVEHFLAVNRVIPTNVPELTFQPSPAPDPPGGLTYFPVADLSIIAALYARFTAQIRGAVDLSLYPREGGVSSRELVKKVSDVIWNSLSRSYFKDRAHIQSLFSFITGTKLDSSGVAFAVVGACQALGLRDVHLALSEDHAWVVFGPNGEQTAEVTWHGKGNEDRRGQTVNAGVAERSWLYLKGSYMRCDRKMEVAFMVCAINPSIDLHTDSLELLQLQQKLLWLLYDLGHLERYPMALGNLADLEELEPTPGRPDPLTLYHKGIASAKTYYRDEHIYPYMYLAGYHCRNRNVREALQAWADTATVIQDYNYCREDEEIYKEFFEVANDVIPNLLKEAASLLEAGEERPGEQSQGTQSQGSALQDPECFAHLLRFYDGICKWEEGSPTPVLHVGWATFLVQSLGRFEGQVRQKVRIVSREAEAAEAEEPWGEEAREGRRRGPRRESKPEEPPPPKKPALDKGLGTGQGAVSGPPRKPPGTVAGTARGPEGGSTAQVPAPTASPPPEGPVLTFQSEKMKGMKELLVATKINSSAIKLQLTAQSQVQMKKQKVSTPSDYTLSFLKRQRKGL
modifications: RED-NHS 2nd generation dye label on the labelled partner in the MST experiments
In the case of B1, the stoichiometry N in data set [7] and in data set [11] was 2 in each case. Moreover, the Kd in data set [8] is 10.5 µM; in data set [9] it was 3 mM; in data set [10] it was 47 µM; in [1], 10.4 µM.

B2: AR MBR-DBD-LBD (domain or fragment)
chain: GEAGAVAPYGYTRPPQGLAGQESDFTAPDVWYPGGMVSRVPYPSPTCVKSEMGPWMDSYSGPYGDMRLETARDHVLPIDYYFPPQKTCLICGDEASGCHYGALTCGSCKVFFKRAAEGKQKYLCASRNDCTIDKFRRKNCPSCRLRKCYEAGMTLGARKLKKLGNLKLQEEGEASSTTSPTEETTQKLTVSHIEGYECQPIFLNVLEAIEPGVVCAGHDNNQPDSFAALLSSLNELGERQLVHVVKWAKALPGFRNLHVDDQMAVIQYSWMGLMVFAMGWRSFTNVNSRMLYFAPDLVFNEYRMHKSRMYSQCVRMRHLSQEFGWLQITPQEFLCMKALLLFSIIPVDGLKNQKFFDELRMNYIKELDRIIACKRKNPTSCSRRFYQLTKLLDSVQPIARELHQFTFDLLIKSHMVSVDFPEMMAEIISVQVPKILSGKVKPIYFHTQ
Take B2: in data set [12], the “stoichiometry N” value turned out to be 2.

B3: menin Δ460-519/ 586-615 (natural protein)
chain: MGLKAAQKTLFPLRSIDDVVRLFAAELGREEPDLVLLSLVLGFVEHFLAVNRVIPTNVPELTFQPSPAPDPPGGLTYFPVADLSIIAALYARFTAQIRGAVDLSLYPREGGVSSRELVKKVSDVIWNSLSRSYFKDRAHIQSLFSFITGTKLDSSGVAFAVVGACQALGLRDVHLALSEDHAWVVFGPNGEQTAEVTWHGKGNEDRRGQTVNAGVAERSWLYLKGSYMRCDRKMEVAFMVCAINPSIDLHTDSLELLQLQQKLLWLLYDLGHLERYPMALGNLADLEELEPTPGRPDPLTLYHKGIASAKTYYRDEHIYPYMYLAGYHCRNRNVREALQAWADTATVIQDYNYCREDEEIYKEFFEVANDVIPNLLKEAASLLEAGEERPGEQSQGTQSQGSALQDPECFAHLLRFYDGICKWEEGSPTPVLHVGWATFLVQSLGRFEGQVRQKVRIVSGTVAGTARGPEGGSTAQVPAPTASPPPEGPVLTFQSEKMKGMKELLVATKINSSAIKLQLTAQSQV
modifications: RED-NHS 2nd generation dye label on the labelled partner in the MST experiments
In data set [13], B3 came in with a Kd of 3200 ± 800 nM.

B4: menin Δ460-519 (natural protein)
chain: MGLKAAQKTLFPLRSIDDVVRLFAAELGREEPDLVLLSLVLGFVEHFLAVNRVIPTNVPELTFQPSPAPDPPGGLTYFPVADLSIIAALYARFTAQIRGAVDLSLYPREGGVSSRELVKKVSDVIWNSLSRSYFKDRAHIQSLFSFITGTKLDSSGVAFAVVGACQALGLRDVHLALSEDHAWVVFGPNGEQTAEVTWHGKGNEDRRGQTVNAGVAERSWLYLKGSYMRCDRKMEVAFMVCAINPSIDLHTDSLELLQLQQKLLWLLYDLGHLERYPMALGNLADLEELEPTPGRPDPLTLYHKGIASAKTYYRDEHIYPYMYLAGYHCRNRNVREALQAWADTATVIQDYNYCREDEEIYKEFFEVANDVIPNLLKEAASLLEAGEERPGEQSQGTQSQGSALQDPECFAHLLRFYDGICKWEEGSPTPVLHVGWATFLVQSLGRFEGQVRQKVRIVSGTVAGTARGPEGGSTAQVPAPTASPPPEGPVLTFQSEKMKGMKELLVATKINSSAIKLQLTAQSQVQMKKQKVSTPSDYTLSFLKRQRKGL
modifications: RED-NHS 2nd generation dye label on the labelled partner in the MST experiments
B4: the figures for the Kd in [13], in [14] and in data set [15] were 1900 ± 900 nM, 15.7 µM and 1700 ± 1800 nM, respectively. Further, in data set [16], the “stoichiometry N” value turned out to be 2.
